Experimental data taken from patent publication US20240279341A1 (Alector, published 2024).

T1: human MerTK on M2c-differentiated human macrophages (human, UniProt Q12866 21-999)
T1 sequence: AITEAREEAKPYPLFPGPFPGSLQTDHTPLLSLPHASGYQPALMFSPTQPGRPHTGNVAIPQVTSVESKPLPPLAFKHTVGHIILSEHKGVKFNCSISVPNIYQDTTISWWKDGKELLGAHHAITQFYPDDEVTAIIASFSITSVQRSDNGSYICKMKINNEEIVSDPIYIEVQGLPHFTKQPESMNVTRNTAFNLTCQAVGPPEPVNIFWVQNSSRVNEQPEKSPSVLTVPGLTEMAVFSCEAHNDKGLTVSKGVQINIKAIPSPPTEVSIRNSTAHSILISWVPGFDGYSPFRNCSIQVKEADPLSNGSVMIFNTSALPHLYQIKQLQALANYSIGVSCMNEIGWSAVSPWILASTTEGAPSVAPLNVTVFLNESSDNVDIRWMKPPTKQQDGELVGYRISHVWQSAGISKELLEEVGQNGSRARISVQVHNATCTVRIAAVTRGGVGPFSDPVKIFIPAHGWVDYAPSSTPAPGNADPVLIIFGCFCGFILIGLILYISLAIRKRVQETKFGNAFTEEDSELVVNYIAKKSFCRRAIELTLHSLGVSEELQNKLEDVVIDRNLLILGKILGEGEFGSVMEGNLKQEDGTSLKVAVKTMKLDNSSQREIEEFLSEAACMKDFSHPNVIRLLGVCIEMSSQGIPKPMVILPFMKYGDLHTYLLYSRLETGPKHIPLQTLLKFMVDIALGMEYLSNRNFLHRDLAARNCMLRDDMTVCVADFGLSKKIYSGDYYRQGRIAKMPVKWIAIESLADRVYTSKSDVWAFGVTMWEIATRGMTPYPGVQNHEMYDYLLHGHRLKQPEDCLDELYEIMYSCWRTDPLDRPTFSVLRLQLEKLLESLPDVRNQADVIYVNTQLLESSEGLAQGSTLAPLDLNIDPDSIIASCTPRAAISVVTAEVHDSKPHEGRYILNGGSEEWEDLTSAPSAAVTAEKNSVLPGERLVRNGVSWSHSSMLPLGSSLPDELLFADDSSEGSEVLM

T2: recombinant human MerTK extracellular domain (human, UniProt Q12866 21-505)
T2 construct: also called huMerTK; not shown: PolyHis tag or TEVS/Thrombin/murine IgG2a Fc tag (a DDDDK-tagged commercial protein is also mentioned); which form was t
T2 sequence: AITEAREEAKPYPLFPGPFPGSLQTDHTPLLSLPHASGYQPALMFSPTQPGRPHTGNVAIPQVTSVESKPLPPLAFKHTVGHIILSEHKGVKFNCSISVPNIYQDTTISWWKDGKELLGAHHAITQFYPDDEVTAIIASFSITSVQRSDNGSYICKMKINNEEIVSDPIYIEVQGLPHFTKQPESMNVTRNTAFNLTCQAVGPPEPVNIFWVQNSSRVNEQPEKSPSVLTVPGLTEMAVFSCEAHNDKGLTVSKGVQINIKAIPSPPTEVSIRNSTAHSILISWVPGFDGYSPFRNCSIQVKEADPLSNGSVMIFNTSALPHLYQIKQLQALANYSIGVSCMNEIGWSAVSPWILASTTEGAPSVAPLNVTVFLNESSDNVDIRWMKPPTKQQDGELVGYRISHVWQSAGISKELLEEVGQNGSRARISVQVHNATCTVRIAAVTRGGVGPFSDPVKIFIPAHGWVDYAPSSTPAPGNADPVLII

T3: recombinant cynomolgus MerTK extracellular domain (cynomolgus monkey, UniProt Q12866 21-505 (human entry))
T3 construct: also called cynoMerTK; cyno MerTK; not shown: PolyHis tag or TEVS/Thrombin/murine IgG2a Fc tag
T3 chain: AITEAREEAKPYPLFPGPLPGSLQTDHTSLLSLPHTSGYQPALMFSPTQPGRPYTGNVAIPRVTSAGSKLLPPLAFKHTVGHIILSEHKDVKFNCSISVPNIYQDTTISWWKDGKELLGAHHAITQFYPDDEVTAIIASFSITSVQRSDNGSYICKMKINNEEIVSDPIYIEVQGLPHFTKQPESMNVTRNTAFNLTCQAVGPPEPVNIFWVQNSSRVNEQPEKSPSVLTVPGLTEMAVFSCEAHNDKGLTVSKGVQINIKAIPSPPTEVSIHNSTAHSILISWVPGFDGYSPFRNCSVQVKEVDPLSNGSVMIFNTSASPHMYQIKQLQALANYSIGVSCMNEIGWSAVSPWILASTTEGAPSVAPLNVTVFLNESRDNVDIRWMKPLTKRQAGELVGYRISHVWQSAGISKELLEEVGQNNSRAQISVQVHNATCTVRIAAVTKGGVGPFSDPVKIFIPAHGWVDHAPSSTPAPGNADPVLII


What was measured:
[1] = target: T1, human MerTK on M2c-differentiated human …; assay: cell-based or functional assay
[2] = target: T2, recombinant human MerTK extracellular …; assay: SPR (Carterra LSA), antibody immobilized, MerTK ECD as analyte; estimate, fits not ideal for a 1:1 model
Protocol: (§1) Binding kinetics of bispecific anti-MerTK:anti-PDL1 antibodies of the present disclosure to human, cyno, and murine MerTK were evaluated using a Carterra LSA instrument. […] A HC30 sensor chip (Carterra) was activated using the single channel flow cell with a 7-minute injection of a 1:1:1 mixture of 100 mM MES pH 5.5, 100 mM sulfo-NHS, 400 mM EDC (all reconstituted in MES pH 5.5; 100 μl of each mixed in vial immediately before running assay). After switching to the multi-channel array flow cell, the antibodies were injected over the activated chip in a 96-spot array for 15 minutes. A duplicate injection of the antibodies on a second block of the chip was spotted as before. The remaining unconjugated active groups on the chip were then blocked by injecting 1M Ethanolamine pH 8.5 (Carterra) for 7 minutes using the single channel flow cell.
(§2) After priming with running buffer (HBS-TE, Carterra) with 0.5 mg/ml BSA (Sigma), the immobilized anti-MerTK antibodies were tested for their ability to bind to several forms of recombinant MerTK extracellular domain, including that of human, cynomolgus, and mouse orthologs as described above. Estimates of affinity were generated by injecting each analyte over the entire antibody array using the single channel flow cell. […] Dissociation was followed for 300 seconds before regenerating after each injection with 2×30 seconds of 10 mM Glycine pH2.5. Three buffer blanks were run between each series (one species per series). After all concentrations of all three species of MerTK were injected, a duplicate set of injections was performed, so that each concentration for all three species was injected in widely spaced duplicates. Data were processed and analyzed using NextGenKIT high-throughput kinetics analysis software (Carterra).

[3] = target: T3, recombinant cynomolgus MerTK …; assay: as above
Protocol: as §1, §2

Row | Binder | Average IC50 (nM) in the presence of huGas6 (huGas6-mediated pAKT reducing activity) [1] [nM] | Kd [2] [µM] | Kd [3] [µM]
1 | monovalent anti-MerTK antibody MTK-16.2 (antibody, V domains shown) VH: QVQLVQSGSELKKPGASVKVSCKASGYTFTNHGMNWVRQAPGQGLEWMGWINTYTGEPTYADDFKGRFVFSLDTSVSTAYLQISSLKAEDTAVYYCARKGVTAARYFDYWGQGTLVTVSS VL: DIQMTQSPSSLSASVGDRVTITCRASQNVRTAVAWYQQKPGKAPKRLIYLASNRHTGVPSRFSGSGSGTEFTLTISNLQPEDFATYYCLQHWNYPLTFGGGTKLEIK | 15.3 | 0.05 | 0.06
2 | bivalent anti-MerTK antibody MTK-16.2 (full IgG) (antibody, V domains shown) VH: QVQLVQSGSELKKPGASVKVSCKASGYTFTNHGMNWVRQAPGQGLEWMGWINTYTGEPTYADDFKGRFVFSLDTSVSTAYLQISSLKAEDTAVYYCARKGVTAARYFDYWGQGTLVTVSS VL: DIQMTQSPSSLSASVGDRVTITCRASQNVRTAVAWYQQKPGKAPKRLIYLASNRHTGVPSRFSGSGSGTEFTLTISNLQPEDFATYYCLQHWNYPLTFGGGTKLEIKR | 3.22 | 0.05 | 0.06
3 | bispecific anti-MerTK MTK-33.11:anti-PDL1 antibody (bispecific antibody, V domains shown) VH 1: QVQLVQSGAEVKKPGASVKVSCKASGYTFTSYWMHWVRQAPGQGLEWIGVIDPSDNYINYNQKFQGRVTMTRDTSTSTVYMELSSLRSEDTAVYYCAREAWTRGYFDYWGQGTLVTVSS VL 1: DIQMTQSPSSLSASVGDRVTITCQASRSVRNTVAWYQQKPGKAPKLLIYYASNRYTGVPSRFSGSGSGTDFTFTISSLQPEDIATYYCQQDYRSPFTFGQGTKLEIK VH 2: not shown VL 2: not shown | 9.03 | 0.002 | 0.002

More lines, in order of falling Kd [2], values ahead:

Row | Average IC50 (nM) in the presence of huGas6 (huGas6-mediated pAKT reducing activity) [1] [nM] | Kd [2] [µM] | Kd [3] [µM] | Binder
4 | 12.3 | 0.03 | 0.03 | bispecific anti-MerTK MTK-16.2:anti-PDL1 antibody (bispecific antibody, V domains shown) VH 1: QVQLVQSGSELKKPGASVKVSCKASGYTFTNHGMNWVRQAPGQGLEWMGWINTYTGEPTYADDFKGRFVFSLDTSVSTAYLQISSLKAEDTAVYYCARKGVTAARYFDYWGQGTLVTVSS VL 1: DIQMTQSPSSLSASVGDRVTITCRASQNVRTAVAWYQQKPGKAPKRLIYLASNRHTGVPSRFSGSGSGTEFTLTISNLQPEDFATYYCLQHWNYPLTFGGGTKLEIK VH 2: not shown VL 2: not shown
5 | 17.9 | 0.002 | 0.003 | monovalent anti-MerTK antibody MTK-33.11 (antibody, V domains shown) VH: QVQLVQSGAEVKKPGASVKVSCKASGYTFTSYWMHWVRQAPGQGLEWIGVIDPSDNYINYNQKFQGRVTMTRDTSTSTVYMELSSLRSEDTAVYYCAREAWTRGYFDYWGQGTLVTVSS VL: DIQMTQSPSSLSASVGDRVTITCQASRSVRNTVAWYQQKPGKAPKLLIYYASNRYTGVPSRFSGSGSGTDFTFTISSLQPEDIATYYCQQDYRSPFTFGQGTKLEIK
6 | 1.25 | 0.002 | 0.002 | bivalent anti-MerTK antibody MTK-33.11 (full IgG) (antibody, V domains shown) VH: QVQLVQSGAEVKKPGASVKVSCKASGYTFTSYWMHWVRQAPGQGLEWIGVIDPSDNYINYNQKFQGRVTMTRDTSTSTVYMELSSLRSEDTAVYYCAREAWTRGYFDYWGQGTLVTVSS VL: DIQMTQSPSSLSASVGDRVTITCQASRSVRNTVAWYQQKPGKAPKLLIYYASNRYTGVPSRFSGSGSGTDFTFTISSLQPEDIATYYCQQDYRSPFTFGQGTKLEIKR
